From US20140087995A1 (published 2014)
Numbered stars: 1 amine (or outer) side, 2 acyl side, 3 side chain; on linkers, the order of the positions; unused ones are H or OH. Bridge positions count the residues as written; N and C are the ends. * marks the point of attachment. C20 diacid = O=C(O)CCCCCCCCCCCCCCCCCCC(=O)*; γGlu = O=C(O)[C@H](CCC(=O)[*:2])N[*:1]; AEEA = NCCOCCOCC(=O)O

T1: human amylin receptor (amylin 3(a) receptor: human calcitonin receptor plus RAMP-3) (human, UniProt P30988 25-474; O60896 24-148, limits assumed)
T1 construct: whole, on cells; the functional assay (Assay IIa) used the whole cells; also called hAmylin-R; hAmylinR
T1 sequence (looked up) 1: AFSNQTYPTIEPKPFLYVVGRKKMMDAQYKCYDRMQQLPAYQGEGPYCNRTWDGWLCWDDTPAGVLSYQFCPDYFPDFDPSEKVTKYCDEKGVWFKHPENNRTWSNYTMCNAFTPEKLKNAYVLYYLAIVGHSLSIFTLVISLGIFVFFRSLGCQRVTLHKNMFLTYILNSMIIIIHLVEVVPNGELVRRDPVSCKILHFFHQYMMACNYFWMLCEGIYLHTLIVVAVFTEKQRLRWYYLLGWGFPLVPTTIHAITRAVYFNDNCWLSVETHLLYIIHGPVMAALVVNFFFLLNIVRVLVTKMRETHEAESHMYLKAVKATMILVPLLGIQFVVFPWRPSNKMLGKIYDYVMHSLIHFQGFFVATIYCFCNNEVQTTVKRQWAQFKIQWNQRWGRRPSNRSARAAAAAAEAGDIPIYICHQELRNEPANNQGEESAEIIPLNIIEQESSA
T1 sequence (looked up) 2: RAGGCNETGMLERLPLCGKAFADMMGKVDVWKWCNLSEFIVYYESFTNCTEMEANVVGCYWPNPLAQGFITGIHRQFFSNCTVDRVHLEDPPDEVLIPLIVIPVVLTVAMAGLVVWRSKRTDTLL

T2: human calcitonin receptor (human, UniProt P30988 25-474)
T2 sequence (looked up): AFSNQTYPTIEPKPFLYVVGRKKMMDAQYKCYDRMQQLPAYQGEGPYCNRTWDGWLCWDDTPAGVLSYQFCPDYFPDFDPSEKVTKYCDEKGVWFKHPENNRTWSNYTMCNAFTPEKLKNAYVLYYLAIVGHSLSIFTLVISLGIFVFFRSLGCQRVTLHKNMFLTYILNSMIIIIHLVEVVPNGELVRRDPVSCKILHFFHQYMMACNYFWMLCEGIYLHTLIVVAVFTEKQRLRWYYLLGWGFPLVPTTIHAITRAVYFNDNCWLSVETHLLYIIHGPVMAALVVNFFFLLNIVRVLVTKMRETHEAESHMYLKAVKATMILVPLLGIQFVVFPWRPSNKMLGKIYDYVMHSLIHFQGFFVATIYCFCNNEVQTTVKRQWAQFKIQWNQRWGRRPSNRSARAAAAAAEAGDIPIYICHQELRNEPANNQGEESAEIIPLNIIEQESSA


Assays:
[1] = target: T1, human amylin receptor (amylin 3(a) …); test: SPA competition binding, membranes of Amylin 3(a)/CRE-luc BHK cells, displacement of 125I-rat amylin (Assay V)
Protocol: The binding assay was performed using scintillation proximity assay (SPA) beads (RPNQ0001) from PerkinElmer and cell membranes from the Amylin 3(a)/CRE-luc cells (as described in Assay (II)) were used. Membranes were prepared in the following way; the cells were rinsed with PBS and incubated with Versene for approximately 5 min before harvesting. The cells were flushed with PBS and the cell-suspension was centrifuged for 5 min at 1000 rpm. Cells were homogenized (ultrathurrax) in a buffer containing 20 mM Na-HEPES and 10 mM EDTA (pH 7.4) and centrifuged at 20.000 rpm for 15 min. The resulting pellet was resuspended, homogenized and centrifuged (20.000 rpm, 15 min) in a buffer containing 20 mM Na-HEPES and 0.1 mM EDTA (pH 7.4, buffer 2). The resulting pellet was resuspended in buffer 2 and protein concentration was measured (BCA protein Assay, Pierce). The homogenate was kept cold during the whole procedure. The membranes were kept at −80° C. until use. The assay was performed in a 384 well Optiplate (PerkinElmer) in a total volume of 40 ul. Membranes were mixed with SPA beads. Final concentration of membranes 35 ng/μL final and SPA beads was 0.05 mg/well. Test-compounds were dissolved in DMSO and further diluted in assay buffer (50 mM Hepes, pH 7.4, 1 mM CaCl2, 5 mM MgCl₂, 0.1% OA and 0.02% Tween20). […] The final mixture was incubated with shaking at 400 rpm for 120 min at 25° C. prior to centrifugation (1500 rpm, 10 min). Samples were analyzed on TopCounter™ (Packard). The IC₅₀ was calculated using (one site binding competition analysis) GraphPad Prism5 as a measure of receptor affinity.

[2] = target: T1, human amylin receptor (amylin 3(a) …); test: cell-based or functional assay
[3] = target: T2, human calcitonin receptor; test: cell-based or functional assay

Binder	IC50 [1]	hAmylin-R funct. EC50 [2]	Ratio hCT/hAmylin funct. (hCTR EC50 against hAmylin-R EC50) [3]	hCTR funct. EC50 [3]
KCNTATCATQRLAEFLRHSSPNFGAIPSSTNVGSNTY (C20 diacid-gGlu on the alpha amino group of the N-terminal residue; Cys2-Cys7 disulfide and C-terminal amide as in human amylin, also called compound 9) [N^α1-[(4S)-4-carboxy-4-(19-carboxynonadecanoylamino)butanoyl]-[Glu14,Arg17,Pro21,Pro27]-h-amylin]	0.143 nM	0.175 nM	7.4	1.29 nM
KCNTATCATQRLANFLRHSSPNFGAIPSSTNVGSKTY (C20 diacid-gGlu on the alpha amino group of the N-terminal residue; Cys2-Cys7 disulfide and C-terminal amide as in human amylin, also called compound 34) [N^α1-[(4S)-4-carboxy-4-(19-carboxynonadecanoylamino)butanoyl]-[Arg17,Pro21,Pro27,Lys35]-h-amylin]	1.14 nM	0.313 nM	8.4	2.62 nM

Further binders by falling IC50 [1], results first:

IC50 [1]	hAmylin-R funct. EC50 [2]	Ratio hCT/hAmylin funct. (hCTR EC50 against hAmylin-R EC50) [3]	hCTR funct. EC50 [3]	Binder
1.14 nM	0.433 nM	23.1	10 nM	KCNTATCATQRLANFLRHSSPNFGAIPSSTNVGSNTY (C20 diacid-gGlu-2xOEG on the alpha amino group of the N-terminal residue; Cys2-Cys7 disulfide and C-terminal amide as in human amylin, also called compound 24)
0.217 nM	0.08 nM	3.6	0.285 nM	{C20 diacid-γGlu-AEEA-AEEA}-KCNTATCATQRLAEFLRHSSPNFGAIPSSTNVGSNTP-NH2 (disulfide 2-7; SMILES CC[C@H](C)[C@H](NC(=O)[C@H](C)NC(=O)CNC(=O)[C@H](Cc1ccccc1)NC(=O)[C@H](CC(N)=O)NC(=O)[C@@H]1CCCN1C(=O)[C@H](CO)NC(=O)[C@H](CO)NC(=O)[C@H](Cc1c[nH]cn1)NC(=O)[C@H](CCCNC(=N)N)NC(=O)[C@H](CC(C)C)NC(=O)[C@H](Cc1ccccc1)NC(=O)[C@H](CCC(=O)O)NC(=O)[C@H](C)NC(=O)[C@H](CC(C)C)NC(=O)[C@H](CCCNC(=N)N)NC(=O)[C@H](CCC(N)=O)NC(=O)[C@@H](NC(=O)[C@H](C)NC(=O)[C@@H]1CSSC[C@H](NC(=O)[C@H](CCCCN)NC(=O)COCCOCCNC(=O)COCCOCCNC(=O)CC[C@H](NC(=O)CCCCCCCCCCCCCCCCCCC(=O)O)C(=O)O)C(=O)N[C@@H](CC(N)=O)C(=O)N[C@@H]([C@@H](C)O)C(=O)N[C@@H](C)C(=O)N[C@@H]([C@@H](C)O)C(=O)N1)[C@@H](C)O)C(=O)N1CCC[C@H]1C(=O)N[C@@H](CO)C(=O)N[C@@H](CO)C(=O)N[C@H](C(=O)N[C@@H](CC(N)=O)C(=O)N[C@H](C(=O)NCC(=O)N[C@@H](CO)C(=O)N[C@@H](CC(N)=O)C(=O)N[C@H](C(=O)N1CCC[C@H]1C(N)=O)[C@@H](C)O)C(C)C)[C@@H](C)O, also called compound 20)
